Measured values published in the supplement of paper PMC10724198.
± gives the standard deviation of the averaged measurements.

What was measured:
[1] = tested on: Saccharomyces cerevisiae; assay: protein stability index of tFT-peptide fusion (C-terminal peptide) (PSI (0-1 scale)); higher = more stable (slower turnover)
Protocol: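 MPS profiling in S. cerevisiae of the tFT-X12 degron library: putative degron peptides plus stable controls, 12 aa, fused to the C-terminus of a sfGFP-mCherry timer. Cells are FACS-sorted into 8 mCherry/sfGFP bins and deep-sequenced. PSI runs from 0 (unstable) to 1 (stable). Backgrounds are wild type, das1Δ and doa10Δ at 30 °C, and wild type, das1Δ, cdc34-1 and cdc53-1 at 37 °C; 2-3 technical replicates each.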

[2] = tested on: Saccharomyces cerevisiae; assay: as above; details: genetic background: wild type; temperature: 30 C
[3] = genetic background: cdc34-1, temperature: 37 C
[4] = genetic background: cdc53-1, temperature: 37 C
[5] = genetic background: das1 deletion, temperature: 30 C
[6] = genetic background: das1 deletion, temperature: 37 C
[7] = genetic background: doa10 deletion, temperature: 30 C
[8] = genetic background: wild type, temperature: 30 C
[9] = genetic background: wild type, temperature: 37 C
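Also: PSI is a weighted mean of sequencing reads over stability bins, variants kept only with over 10 reads, mCherry proximal and sfGFP distal, peptide attached via GGGS linker.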

Sequence	protein stability index [1, 3]	protein stability index [1, 4]	protein stability index [1, 5]	protein stability index [1, 6]	protein stability index [1, 7]	protein stability index [1, 8]	protein stability index [1, 9]	protein stability index [2]
CVLLRPGFLVLV	0.1771 ± 0.0015	0.148 ± 0.011	0.207 ± 0.021	0.278 ± 0.013	0.2144 ± 0.0018	0.166 ± 0.014	0.216 ± 0.016	0.234 ± 0.011
CVYGILLLVDVR	0.0231 ± 0.00051	0.0547 ± 0.039	0.106 ± 0.032	0.128 ± 0.005	0.0714 ± 0.034	0.0971 ± 0.018	0.143 ± 0.066	0.189 ± 0.0074
CWDNTLKTMRQM	0.67 ± 0.0063	0.732 ± 0.022	0.655 ± 0.042	0.7322 ± 0.0059	0.307 ± 0.015	0.333 ± 0.018	0.5969 ± 0.0032	0.228 ± 0.1
CWLFCACFVRLV	0.125 ± 0.014	0.154 ± 0.0052	0.211 ± 0.019	0.333 ± 0.015	0.0691 ± 0.0032	0.0636 ± 0.0022	0.07618 ± 0.00043	0.101 ± 0.0076
CYFLFFLSYSLE	0.237 ± 0.0066	0.343 ± 0.045	0.231 ± 0.05	0.455 ± 0.019	0.194 ± 0.039	0.226 ± 0.029	0.439 ± 0.0046	0.297 ± 0.0097
CYTGYMYKLLVG	0.507 ± 0.054	0.547 ± 0.01	0.48 ± 0.031	0.59019 ± 0.00036	0.2458 ± 0.00076	0.243 ± 0.027	0.423 ± 0.015	0.346 ± 0.027
DFHLPWPVALVW	0.134 ± 0.02	0.144 ± 0.016	0.217 ± 0.018	0.277 ± 0.0039	0.188 ± 0.0067	0.208 ± 0.026	0.24 ± 0.013	0.387 ± 0.039
DFIVVIRFIQII	0.268 ± 0.012	0.376 ± 0.009	0.266 ± 0.023	0.3971 ± 0.0035	0.1447 ± 0.001	0.154 ± 0.027	0.235 ± 0.0043	0.232 ± 0.017
DFVYFPPIPVSS	0.303 ± 0.0088	0.352 ± 0.039	0.253 ± 0.051	0.462 ± 0.011	0.218 ± 0.0036	0.266 ± 0.032	0.409 ± 0.006	0.337 ± 0.018
DISWVFVLLIFF	0.333 ± 0.036	0.402 ± 0.012	0.3 ± 0.033	0.485 ± 0.029	0.318 ± 0.023	0.279 ± 0.039	0.445 ± 0.011	0.382 ± 0.026
DMWYLLWRVCYI	0.51263 ± 0.00047	0.549 ± 0.056	0.43 ± 0.022	0.582 ± 0.02	0.37 ± 0.02	0.409 ± 0.026	0.56 ± 0.01	0.48 ± 0.028
DNTYRIDIKNKQ	0.764 ± 0.093	0.771 ± 0.04	0.641 ± 0.019	0.689 ± 0.0069	0.4753 ± 0.0045	0.466 ± 0.013	0.6553 ± 0.00098	
EGALSGGGKTSG	0.643 ± 0.045	0.719 ± 0.019	0.634 ± 0.016	0.7181 ± 0.0047	0.636 ± 0.014	0.631 ± 0.012	0.692 ± 0.018	0.651 ± 0.24
EKIIVAVLFVVP	0.354 ± 0.032	0.482 ± 0.054	0.305 ± 0.02	0.504 ± 0.012	0.281 ± 0.0051	0.302 ± 0.02	0.439 ± 0.02	0.437 ± 0.043
ENKGGNQKRRKK	0.686 ± 0.048	0.743 ± 0.056	0.628 ± 0.056	0.736 ± 0.012	0.646 ± 0.014	0.635 ± 0.021	0.698 ± 0.035	0.559 ± 0.18
EQMRRYILVSYV	0.522 ± 0.021	0.609 ± 0.025	0.427 ± 0.019	0.5998 ± 0.0036	0.198 ± 0.0082	0.243 ± 0.02	0.4255 ± 0.0019	0.352 ± 0.033
ERFRLYFRPGIF	0.635 ± 0.036	0.7213 ± 0.00075	0.653 ± 0.031	0.709 ± 0.021	0.296 ± 0.03	0.332 ± 0.015	0.58 ± 0.008	0.234 ± 0.091
ESCWVSRVGVCR	0.685 ± 0.03	0.731 ± 0.038	0.649 ± 0.062	0.7347 ± 0.0049	0.588 ± 0.0086	0.608 ± 0.01	0.687 ± 0.018	0.694 ± 0.076
EVTRMLRVVREI	0.689 ± 0.035	0.761 ± 0.032	0.631 ± 0.026	0.768 ± 0.016	0.322 ± 0.0093	0.38 ± 0.032	0.588 ± 0.02	0.456 ± 0.065
FFFWLLCAGWLL	0.661 ± 0.01	0.622 ± 0.012	0.544 ± 0.044	0.656 ± 0.0071	0.551 ± 0.041	0.534 ± 0.0081	0.649 ± 0.0073	
GAQQRVKERYIE	0.648 ± 0.012	0.721 ± 0.027	0.636 ± 0.028	0.7346 ± 0.0027	0.6157 ± 0.0038	0.646 ± 0.03	0.741 ± 0.00086	
GGGGVFGVWVWM	0.533 ± 0.058	0.618 ± 0.018	0.511 ± 0.013	0.656 ± 0.0086	0.23 ± 0.017	0.272 ± 0.024	0.494 ± 0.014	
GRTDFSTLLLIC	0.491 ± 0.016	0.6912 ± 0.0053	0.564 ± 0.018	0.683 ± 0.019	0.106 ± 0.012	0.132 ± 0.039	0.16 ± 0.056	
HSAIFLFFFFFG	0.283 ± 0.11	0.4553 ± 0.0042	0.314 ± 0.022	0.444 ± 0.03	0.331 ± 0.051	0.296 ± 0.024	0.401 ± 0.034	
LLFFGFVGSCVF	0.6341 ± 0.0023	0.6187 ± 0.0052	0.468 ± 0.028	0.671 ± 0.041	0.471 ± 0.047	0.485 ± 0.036	0.57 ± 0.0036	
LPPHSASLSSSF	0.701 ± 0.054	0.7591 ± 0.0059	0.635 ± 0.029	0.725 ± 0.011	0.665 ± 0.015	0.675 ± 0.022	0.704 ± 0.013	
NAAVQSGGRVAG	0.67 ± 0.043	0.722 ± 0.05	0.638 ± 0.01	0.733 ± 0.0013	0.645 ± 0.025	0.646 ± 0.0076	0.696 ± 0.016	
PACPPLPPRSPS	0.634 ± 0.0068	0.7142 ± 0.0047	0.693 ± 0.028	0.737 ± 0.017	0.688 ± 0.069	0.7 ± 0.015	0.7 ± 0.024	

Sequence	protein stability index [1, 3]	protein stability index [1, 4]	protein stability index [1, 5]	protein stability index [1, 6]	protein stability index [1, 7]	protein stability index [1, 8]	protein stability index [1, 9]	protein stability index [2]
RPPHPPPATFLS	0.617 ± 0.064	0.7 ± 0.0084	0.679 ± 0.018	0.727 ± 0.0097	0.226 ± 0.025	0.253 ± 0.025	0.487 ± 0.021	
RWRLWVGWGVVG	0.621 ± 0.034	0.688 ± 0.022	0.521 ± 0.0056	0.691 ± 0.039	0.425 ± 0.029	0.368 ± 0.078	0.533 ± 0.059	
VGGREVSRAGGG	0.62 ± 0.048	0.672 ± 0.0081	0.49 ± 0.027	0.578 ± 0.06	0.477 ± 0.0076	0.481 ± 0.011	0.534 ± 0.041	
VSVFWVFLLVAG	0.223 ± 0.0059	0.375 ± 0.011	0.245 ± 0.024	0.4401 ± 0.0035	0.189 ± 0.012	0.218 ± 0.024	0.383 ± 0.016	
WPPPPPSLLLLC	0.4666 ± 0.0016	0.548 ± 0.022	0.473 ± 0.016	0.611 ± 0.017	0.127 ± 0.0019	0.149 ± 0.019	0.177 ± 0.024	
YIYIFLVWGWYC	0.193 ± 0.056	0.314 ± 0.016	0.214 ± 0.033	0.4232 ± 0.0041	0.103 ± 0.013	0.132 ± 0.0065	0.201 ± 0.018	
YQPLWTNTITGT								0.799 ± 0.17
YRFSKELEQKGQ								0.68281 ± 0.0003
YRLLRINFALPI								0.622 ± 0.025
YSRPAPSAPPHL								0.698 ± 0.016
YSRRRKILRKSY								0.615 ± 0.051
YSSALLHPTSPV								0.655 ± 0.064
YSSLLPLSSPSG								0.684 ± 0.04
YSVLVSLLPPSL								0.681 ± 0.031
YTAPIIGIGDDG								0.659 ± 0.036
YTKFASLKRHTQ								0.636 ± 0.034
YTTLLVSTNRLS								0.477 ± 0.082
YVGLNHYCIDAL								0.723 ± 0.054
YVLLSRFYLPPL								0.665 ± 0.02
YVSLAHLRWGVE								0.732 ± 0.055
YVVMARWSRWYV								0.522 ± 0.015
YVWVPCIRSVLV								0.491 ± 0.018
YWGEGGCREGGE								0.664 ± 0.056
YWSAQGRVVCVL								0.481 ± 0.07
YYLAVGNRIASR								0.688 ± 0.043
YYPLRIADQNGN								0.795 ± 0.054
YYRARRFRQSRR								0.709 ± 0.077
